Experimental data taken from patent publication US20210388087A1 (Chugai, published 2021).
Changes are numbered by the printed parent chain. One block for each binder: values may come before it.

Target: T1, CD3 epsilon homodimer protein (UniProt P07766 23-126)
T1 construct: also called CD3 (CD3 epsilon)
Assay: SPR, CD3 epsilon homodimer on chip, one-arm antibody as analyte;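 further: surface plasmon resonance at 25 °C with CD3 epsilon homodimer amine-coupled to a CM4 sensor chip, antibody injected as analyte, HBS-EP+ as running buffer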

T1 sequence (P07766 23-126): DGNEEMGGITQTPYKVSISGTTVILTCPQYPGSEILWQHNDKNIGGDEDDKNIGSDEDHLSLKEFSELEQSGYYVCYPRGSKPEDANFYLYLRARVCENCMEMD

B1: CE115HA000 Y55G (antibody, human IgG1, kappa, L234A L235A, N297A, name in Kabat numbering)
heavy: QVQLVESGGGVVQPGRSLRLSCAASGFTFSNAWMHWVRQAPGKGLEWVAQIKAKSNNGATYYAESVKGRFTISRDDSKNSLYLQMNSLKTEDTAVYYCRYVHYGAYYGVDAWGQGTTVTVSSASTKGPSVFPLAPSSKSTSGGTAALGCLVKDYFPEPVTVSWNSGALTSGVHTFPAVLQSSGLYSLSSVVTVPSSSLGTQTYICNVNHKPSNTKVDKKVEPKSCDKTHTCPPCPAPEAAGGPSVFLFPPKPKDTLMISRTPEVTCVVVDVSHEDPEVKFNWYVDGVEVHNAKTKPREEQYASTYRVVSVLTVLHQDWLNGKEYKCKVSNKALPAPIEKTISKAKGQPREPQVYTLPPSRCELTKNQVSLSCAVKGFYPSDIAVEWESNGQPENNYKTTPPVLDSDGSFFLVSKLTVDKSRWQQGNVFSCSVMHEALHNHYTQKSLSLSPDYKDDDDK
chain: EPKSSDKTHTCPPCPAPELLGGPSVFLFPPKPKDTLMISRTPEVTCVVVDVSHEDPEVKFNWYVDGVEVHNAKTKPREEQYNSTYRVVSVLTVLHQDWLNGKEYKCKVSNKALPAPIEKTISKAKGQPREPQVCTLPPSRDELTKNQVSLWCLVKGFYPSDIAVEWESNGQPENNYKTTPPVLDSDGSFFLYSKLTVDKSRWQQGNVFSCSVMHEALHNRYTQKSLSLSP
light: DIVMTQSPLSLPVTPGEPASISCRSSQSLVHSNRNTYLHWYQQKPGQAPRLLIYKVSNRFSGVPDRFSGSGSGTDFTLKISRVEAEDVGVYYCGQGTQVPYTFGQGTKLEIKRTVAAPSVFIFPPSDEQLKSGTASVVCLLNNFYPREAKVQWKVDNALQSGNSQESVTEQDSKDSTYSLSSTLTLSKADYEKHKVYACEVTHQGLSSPVTKSFNRGEC
notes: one-arm antibody
- KD ratio (KD of CE115HA000/KD of altered form): 0.99

B2: CE115HA000 Y58S (antibody, human IgG1, kappa, L234A L235A, N297A, name in Kabat numbering)
heavy: B1 heavy with G58Y, Y61S
chain: B1 chain
light: B1 light
notes: one-arm antibody
- KD ratio (KD of CE115HA000/KD of altered form): 1.22

B3: CE115HA000 Y97R (antibody, human IgG1, kappa, L234A L235A, N297A, name in Kabat numbering)
heavy: B1 heavy with G58Y, Y103R
chain: B1 chain
light: B1 light
notes: one-arm antibody
- KD ratio (KD of CE115HA000/KD of altered form): 23200

B4: CE115HA000 Y59S (antibody, human IgG1, kappa, L234A L235A, N297A, name in Kabat numbering)
heavy: B1 heavy with G58Y, Y62S
chain: B1 chain
light: B1 light
notes: one-arm antibody
- KD ratio (KD of CE115HA000/KD of altered form): 0.79

B10: CE115HA000 Y58Q (antibody, human IgG1, kappa, L234A L235A, N297A, name in Kabat numbering)
heavy: B1 heavy with G58Y, Y61Q
chain: B1 chain
light: B1 light
notes: one-arm antibody
- KD ratio (KD of CE115HA000/KD of altered form): 1.24

B11: CE115HA000 Y97S (antibody, human IgG1, kappa, L234A L235A, N297A, name in Kabat numbering)
heavy: B1 heavy with G58Y, Y103S
chain: B1 chain
light: B1 light
notes: one-arm antibody
- KD ratio (KD of CE115HA000/KD of altered form): 1180

B13: CE115HA000 Y58A (antibody, human IgG1, kappa, L234A L235A, N297A, name in Kabat numbering)
heavy: B1 heavy with G58Y, Y61A
chain: B1 chain
light: B1 light
notes: one-arm antibody
- KD ratio (KD of CE115HA000/KD of altered form): 1.06

B15: CE115HA000 Y58D (antibody, human IgG1, kappa, L234A L235A, N297A, name in Kabat numbering)
heavy: B1 heavy with G58Y, Y61D
chain: B1 chain
light: B1 light
notes: one-arm antibody
- KD ratio (KD of CE115HA000/KD of altered form): 4.81

B18: CE115HA000 Y55S (antibody, human IgG1, kappa, L234A L235A, N297A, name in Kabat numbering)
heavy: B1 heavy with G58S
chain: B1 chain
light: B1 light
notes: one-arm antibody
- KD ratio (KD of CE115HA000/KD of altered form): 5.65

B19: CE115HA000 Y97A (antibody, human IgG1, kappa, L234A L235A, N297A, name in Kabat numbering)
heavy: B1 heavy with G58Y, Y103A
chain: B1 chain
light: B1 light
notes: one-arm antibody
- KD ratio (KD of CE115HA000/KD of altered form): 41300

B24: CE115HA000 Y59D (antibody, human IgG1, kappa, L234A L235A, N297A, name in Kabat numbering)
heavy: B1 heavy with G58Y, Y62D
chain: B1 chain
light: B1 light
notes: one-arm antibody
- KD ratio (KD of CE115HA000/KD of altered form): 0.66

B25: CE115HA000 Y58K (antibody, human IgG1, kappa, L234A L235A, N297A, name in Kabat numbering)
heavy: B1 heavy with G58Y, Y61K
chain: B1 chain
light: B1 light
notes: one-arm antibody
- KD ratio (KD of CE115HA000/KD of altered form): 0.66

B27: CE115HA000 Y97G (antibody, human IgG1, kappa, L234A L235A, N297A, name in Kabat numbering)
heavy: B1 heavy with G58Y, Y103G
chain: B1 chain
light: B1 light
notes: one-arm antibody
- KD ratio (KD of CE115HA000/KD of altered form): 47200

B28: CE115HA000 Y59A (antibody, human IgG1, kappa, L234A L235A, N297A, name in Kabat numbering)
heavy: B1 heavy with G58Y, Y62A
chain: B1 chain
light: B1 light
notes: one-arm antibody
- KD ratio (KD of CE115HA000/KD of altered form): 0.74

B29: CE115HA000 Y97D (antibody, human IgG1, kappa, L234A L235A, N297A, name in Kabat numbering)
heavy: B1 heavy with G58Y, Y103D
chain: B1 chain
light: B1 light
notes: one-arm antibody
- KD ratio (KD of CE115HA000/KD of altered form): 65.7

B30: CE115HA000 Y59E (antibody, human IgG1, kappa, L234A L235A, N297A, name in Kabat numbering)
heavy: B1 heavy with G58Y, Y62E
chain: B1 chain
light: B1 light
notes: one-arm antibody
- KD ratio (KD of CE115HA000/KD of altered form): 0.61

B31: CE115HA000 Y58N (antibody, human IgG1, kappa, L234A L235A, N297A, name in Kabat numbering)
heavy: B1 heavy with G58Y, Y61N
chain: B1 chain
light: B1 light
notes: one-arm antibody
- KD ratio (KD of CE115HA000/KD of altered form): 1.86

B32: CE115HA000 Y97P (antibody, human IgG1, kappa, L234A L235A, N297A, name in Kabat numbering)
heavy: B1 heavy with G58Y, Y103P
chain: B1 chain
light: B1 light
notes: one-arm antibody
- KD ratio (KD of CE115HA000/KD of altered form): 12400

B33: CE115HA000 Y58L (antibody, human IgG1, kappa, L234A L235A, N297A, name in Kabat numbering)
heavy: B1 heavy with G58Y, Y61L
chain: B1 chain
light: B1 light
notes: one-arm antibody
- KD ratio (KD of CE115HA000/KD of altered form): 1.21

Other lines, results leading:

- KD ratio (KD of CE115HA000/KD of altered form): 0.77
B5: CE115HA000 Y100Q (antibody, human IgG1, kappa, L234A L235A, N297A, name in Kabat numbering)
heavy: B1 heavy with G58Y, Y106Q
chain: B1 chain
light: B1 light
notes: one-arm antibody

- KD ratio (KD of CE115HA000/KD of altered form): 1.2
B6: CE115HA000 Y100aD (antibody, human IgG1, kappa, L234A L235A, N297A, name in Kabat numbering)
heavy: B1 heavy with G58Y, Y107D
chain: B1 chain
light: B1 light
notes: one-arm antibody

- KD ratio (KD of CE115HA000/KD of altered form): 0.93
B7: CE115HA000 Y100K (antibody, human IgG1, kappa, L234A L235A, N297A, name in Kabat numbering)
heavy: B1 heavy with G58Y, Y106K
chain: B1 chain
light: B1 light
notes: one-arm antibody

- KD ratio (KD of CE115HA000/KD of altered form): 0.92
B8: CE115HA000 Y100A (antibody)
heavy: B1 heavy with G58Y, Y106A
Fc: B1 chain
light: B1 light
notes: one-arm antibody

- KD ratio (KD of CE115HA000/KD of altered form): 0.7
B9: CE115HA000 Y100S (antibody, human IgG1, kappa, L234A L235A, N297A, name in Kabat numbering)
heavy: B1 heavy with G58Y, Y106S
chain: B1 chain
light: B1 light
notes: one-arm antibody

- KD ratio (KD of CE115HA000/KD of altered form): 1.01
B12: CE115HA000 Y100aG (antibody, human IgG1, kappa, L234A L235A, N297A, name in Kabat numbering)
heavy: B1 heavy with G58Y, Y107G
chain: B1 chain
light: B1 light
notes: one-arm antibody

- KD ratio (KD of CE115HA000/KD of altered form): 1.3
B14: CE115HA000 Y100P (antibody, human IgG1, kappa, L234A L235A, N297A, name in Kabat numbering)
heavy: B1 heavy with G58Y, Y106P
chain: B1 chain
light: B1 light
notes: one-arm antibody

- KD ratio (KD of CE115HA000/KD of altered form): 0.98
B16: CE115HA000 Y100aF (antibody, human IgG1, kappa, L234A L235A, N297A, name in Kabat numbering)
heavy: B1 heavy with G58Y, Y107F
chain: B1 chain
light: B1 light
notes: one-arm antibody

- KD ratio (KD of CE115HA000/KD of altered form): 0.96
B17: CE115HA000 Y100W (antibody, human IgG1, kappa, L234A L235A, N297A, name in Kabat numbering)
heavy: B1 heavy with G58Y, Y106W
chain: B1 chain
light: B1 light
notes: one-arm antibody

- KD ratio (KD of CE115HA000/KD of altered form): 0.97
B20: CE115HA000 Y100G (antibody, human IgG1, kappa, L234A L235A, N297A, name in Kabat numbering)
heavy: B1 heavy with G58Y, Y106G
chain: B1 chain
light: B1 light
notes: one-arm antibody

- KD ratio (KD of CE115HA000/KD of altered form): 0.66
B21: CE115HA000 Y100aA (antibody)
heavy: B1 heavy with G58Y, Y107A
Fc: B1 chain
light: B1 light
notes: one-arm antibody

- KD ratio (KD of CE115HA000/KD of altered form): 0.63
B22: CE115HA000 Y100D (antibody, human IgG1, kappa, L234A L235A, N297A, name in Kabat numbering)
heavy: B1 heavy with G58Y, Y106D
chain: B1 chain
light: B1 light
notes: one-arm antibody

- KD ratio (KD of CE115HA000/KD of altered form): 0.67
B23: CE115HA000 Y100L (antibody, human IgG1, kappa, L234A L235A, N297A, name in Kabat numbering)
heavy: B1 heavy with G58Y, Y106L
chain: B1 chain
light: B1 light
notes: one-arm antibody

- KD ratio (KD of CE115HA000/KD of altered form): 0.92
B26: CE115HA000 Y100V (antibody, human IgG1, kappa, L234A L235A, N297A, name in Kabat numbering)
heavy: B1 heavy with G58Y, Y106V
chain: B1 chain
light: B1 light
notes: one-arm antibody
